We go through three molecules from publication PMC7997659, “Architecture and structural dynamics of the heteromeric GluK2/K5 kainate receptor” (eLife, 2021).

The chains are these.
B2: GluK2em (rat GluK2 cryo-EM expression construct) (receptor, UniProt P42260 32-908, looked up)
chain: TTHVLRFGGIFEYVESGPMGAEELAFRFAVNTINRNRTLLPNTTLTYDTQKINLYDSFEASKKACDQLSLGVAAIFGPSHSSSANAVQSICNALGVPHIQTRWKHQVSDNKDSFYVSLYPDFSSLSRAILDLVQFFKWKTVTVVYDDSTGLIRLQELIKAPSRYNLRLKIRQLPADTKDAKPLLKEMKRGKEFHVIFDCSHEMAAGILKQALAMGMMTEYYHYIFTTLDLFALDVEPYRYSGVNMTGFRILNTENTQVSSIIEKWSMERLQAPPKPDSGLLDGFMTTDAALMYDAVHVVSVAVQQFPQMTVSSLQCNRHKPWRFGTRFMSLIKEAHWEGLTGRITFNKTNGLRTDFDLDVISLKEEGLEKIGTWDPASGLNMTESQKGKPANITDSLSNRSLIVTTILEEPYVLFKKSDKPLYGNDRFEGYCIDLLRELSTILGFTYEIRLVEDGKYGAQDDVNGQWNGMVRELIDHKADLAVAPLAITYVREKVIDFSKPFMTLGISILYRKPNGTNPGVFSFLNPLSPDIWMYVLLAYLGVSVVLFVIARFSPYEWYNPHPSNPDSDVVENNFTLLNSFWFGVGALMQQGSELMPKALSTRIVGGIWWFFTLIIISSYTANLAAFLTVERMESPIDSADDLAKQTKIEYGAVEDGATMTFFKKSKISTYDKMWAFMSSRRQSVLVKSNEEGIQRVLTSDYAFLMESTTIEFVTQRNCNLTQIGGLIDSKGYGVGTPMGSPYRDKITIAILQLQEEGKLHMMKEKWWRGNGCPEEESKEASALGVQNIGGIFIVLAAGLVLSVFVAVGEFLYKSKKNAQLEKRSFCSAMVEELRMSLKCQRRLKHKPQAPVIVKTEEVINMHTFNDRRLPGKETMA
modifications: N-linked glycans at N67, N378, N412, N546
notes: signal peptide in the construct; rat GluK2 (GRIK2_RAT), full-length gene, RNA-edited at position 567 (I to V), with C576V and C595S; Two copies stand in the GluK2/K5em tetramer (B/D positions); No thrombin cleavage step is told in the purification; also called B/D subunits; source: HEK293S GnTI- cells, BacMam, co-expressed with GluK5em, purified (Strep-Tactin, 1D4 resin, Superose 6); HEK293T, …

The target of data set [1] is wild-type GluK2 (rat) (UniProt P42260).
Data set [2] deals with the molecule itself. Briefly: cryo-EM structure; GluK2/K5em co-expressed and co-purified in DDM/CHS, 3.7 mg/mL, with 1 mM CNQX (antagonist-bound); full-length 5.3 Å, ATD layer 3.6 Å, LBD-TMD 4.2 Å.
Data set [3] addresses B2. The description is as above. As to conditions: both partners purified.

B1: wild-type GluK5 (receptor)
chain: NPSCQVLSSLRMAAILDDQTVCGRGERLALALAREQINGIIEVPAKARVEVDIFELQRDSQYETTDTMCQILPKGVVSVLGPSSSPASASTVSHICGEKEIPHIKVGPEETPRLQYLRFASVSLYPSNEDVSLAVSRILKSFNYPSASLICAKAECLLRLEELVRGFLISKETLSVRMLDDSRDPTPLLKEIRDDKVSTIIIDANASISHLVLRKASELGMTSAFYKYILTTMDFPILHLDGIVEDSSNILGFSMFNTSHPFYPEFVRSLNMSWRENCEASTYPGPALSAALMFDAVHVVVSAVRELNRSQEIGVKPLACTSANIWPHGTSLMNYLRMVEYDGLTGRVEFNSKGQRTNYTLRILEKSRQGHREIGVWYSNRTLAMNATTLDINLSQTLANKTLVVTTILENPYVMRRPNFQALSGNERFEGFCVDMLRELAELLRFRYRLRLVEDGLYGAPEPNGSWTGMVGELINRKADLAVAAFTITAEREKVIDFSKPFMTLGISILYRVHMGRKPGYFSFLDPFSPAVWLFMLLAYLAVSCVLFLAARLSPYEWYNPHPCLRARPHILENQYTLGNSLWFPVGGFMQQGSEIMPRALSTRCVSGVWWAFTLIIISSYTANLAAFLTVQRMEVPVESADDLADQTNIEYGTIHAGSTMTFFQNSRYQTYQRMWNYMQSKQPSVFVKSTEEGIARVLNSRYAFLLESTMNEYHRRLNCNLTQIGGLLDTKGYGIGMPLGSPFRDEITLAILQLQENNRLEILKRKWWEGGRCPKEEDHRAKGLGMENIGGIFVVLICGLIIAVFVAVMEFIWSTRRSAESEEVSVCQEMLQELRHAVSCRKTSRSRRRRRPGGPSRALLSLRAVREMRLSNGKLYSAGAGGDAGAHGGPQRLLDDPGPPGGPRPQAPTPCTHVRVCQECRRIQALRASGAGAPPRGLGTPAEATSPPRPRPGPTGPRELTEHE
In the case of B1, in data set [1], the deactivation current decay after a 1 ms pulse of 1 mM L-Glu, outside-out patches of HEK293T cells co-transfected with wild-type GluK2 and GluK5; weighted τ amounted to 23.6 ms; the deactivation current decay after a 1 ms pulse of 1 mM L-Glu, outside-out patches of HEK293T cells co-transfected with wild-type GluK2 and GluK5; τ3 (slow component) was 60 ms.

Regarding B2, the binding result in data set [2] is “binds”.

B3: GluK5em (rat GluK5 cryo-EM expression construct) (receptor)
chain: NPSCQVLSSLRMAAILDDQTVCGRGERLALALAREQINGIIEVPAKARVEVDIFELQRDSQYETTDTMCQILPKGVVSVLGPSSSPASASTVSHICGEKEIPHIKVGPEETPRLQYLRFASVSLYPSNEDVSLAVSRILKSFNYPSASLICAKAECLLRLEELVRGFLISKETLSVRMLDDSRDPTPLLKEIRDDKVSTIIIDANASISHLVLRKASELGMTSAFYKYILTTMDFPILHLDGIVEDSSNILGFSMFNTSHPFYPEFVRSLNMSWRENCEASTYPGPALSAALMFDAVHVVVSAVRELNRSQEIGVKPLACTSANIWPHGTSLMNYLRMVEYDGLTGRVEFNSKGQRTNYTLRILEKSRQGHREIGVWYSNRTLAMNATTLDINLSQTLANKTLVVTTILENPYVMRRPNFQALSGNERFEGFCVDMLRELAELLRFRYRLRLVEDGLYGAPEPNGSWTGMVGELINRKADLAVAAFTITAEREKVIDFSKPFMTLGISILYRVHMGRKPGYFSFLDPFSPAVWLFMLLAYLAVSVVLFLAARLSPYEWYNPHPSLRARPHILENQYTLGNSLWFPVGGFMQQGSEIMPRALSTRIVSGVWWAFTLIIISSYTANLAAFLTVQRMEVPVESADDLADQTNIEYGTIHAGSTMTFFQNSRYQTYQRMWNYMQSKQPSVFVKSTEEGIARVLNSRYAFLLESTMNEYHRRLNCNLTQIGGLLDTKGYGIGMPLGSPFRDEITLAILQLQENNRLEILKRKWWEGGRCPKEEDHRAKGLGMENIGGIFVVLIAGLIIAVFVAVMEFIYKSRAEAKRMK
modifications: N-linked glycans at N219, N271, N322, N372, N394
notes: signal peptide in the construct; rat GluK5 (GRIK5_RAT), from the full-length gene, truncated at position 827 after the M4 helix, four cysteines mutated; GluA2 'tail' ('A2 tail') added at the subunit C-terminus in place of the GluK5 C-terminus; GluK5 with point mutations and its C-terminus replaced by the GluA2 tail; Two copies stand in the GluK2/K5em tetramer (A/C positions); No thrombin cleavage …
B3: the “stoichiometry N” value in data set [3] was 1 GluK5 per GluK2 (printed as 2:2).
